Source: paper PMC5363963 (Biochemistry and Biophysics Reports, 2016)
Square brackets hold non-standard residues; d marks the D form. Ends that are not written are not given here.

T1: synthetic amyloid fibrils composed of human islet amyloid polypeptide (human, UniProt P10997 34-70)
T1 peptide (looked up): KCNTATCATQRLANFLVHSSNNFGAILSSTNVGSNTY


Molecular target: synthetic amyloid fibrils composed of recombinant Vλ6 protein Wil
Assay: SPR

In order of rising Kd:
1. GGGYSKAQKAQAKQAKQAQKAQKAQAKQAKQ [peptide p5]  0.0037 µM
2. GGG[dY][dS][dK][dA][dQ][dK][dA][dQ][dA][dK][dQ][dA][dK][dQ][dA][dQ][dK][dA][dQ][dK][dA][dQ][dA][dK][dQ][dA][dK][dQ] [peptide p5(D)]  0.0054 µM
3. VYKVKTKVKTKVKTKVKT [peptide p5(sheet)]  0.01 µM
4. GGGYSKGGKGGGKGGKGGGKGGKGGGKGGKG [peptide p5(coil)]  0.018 µM
5. GGGYSKAQKAPAKQAKQPQKAQKAPAKQAKQ [peptide p5(Pro3)]  0.025 µM

Molecular target: T1, synthetic amyloid fibrils composed of …
Assay: pull-down

In order of falling “ratio of 1 M/0.15 M pulldown data (bound peptide in 1 M NaCl over that in PBS)” value:
1. VYKVKTKVKTKVKTKVKT (also: radioiodinated with iodine-125, site not given here) [125I-labeled peptide p5(sheet)]  0.2
2. GGGYSKGGKGGGKGGKGGGKGGKGGGKGGKG (also: radioiodinated with iodine-125, site not given here) [125I-labeled peptide p5(coil)]  0.12
3. GGGYSKAQKAPAKQAKQPQKAQKAPAKQAKQ (also: radioiodinated with iodine-125, site not given here) [125I-labeled peptide p5(Pro3)]  0.07

Molecular target: synthetic amyloid fibrils composed of recombinant Vλ6 protein Wil
Assay: SPR
Remark: another data set of the same source

In order of falling Kd:
1. GGGYSKAQKAPAKQAKQPQKAQKAPAKQAKQ [peptide p5(Pro3)]  0.071 µM
2. GGGYSKGGKGGGKGGKGGGKGGKGGGKGGKG [peptide p5(coil)]  0.034 µM
3. VYKVKTKVKTKVKTKVKT [peptide p5(sheet)]  0.025 µM
4. GGG[dY][dS][dK][dA][dQ][dK][dA][dQ][dA][dK][dQ][dA][dK][dQ][dA][dQ][dK][dA][dQ][dK][dA][dQ][dA][dK][dQ][dA][dK][dQ] [peptide p5(D)]  0.022 µM
5. GGGYSKAQKAQAKQAKQAQKAQKAQAKQAKQ [peptide p5]  0.015 µM

In order of falling ka1 (two-state model, first step):
1. GGG[dY][dS][dK][dA][dQ][dK][dA][dQ][dA][dK][dQ][dA][dK][dQ][dA][dQ][dK][dA][dQ][dK][dA][dQ][dA][dK][dQ][dA][dK][dQ] [peptide p5(D)]  550000 M⁻¹ s⁻¹
2. GGGYSKAQKAQAKQAKQAQKAQKAQAKQAKQ [peptide p5]  480000 M⁻¹ s⁻¹
3. VYKVKTKVKTKVKTKVKT [peptide p5(sheet)]  420000 M⁻¹ s⁻¹
4. GGGYSKAQKAPAKQAKQPQKAQKAPAKQAKQ [peptide p5(Pro3)]  120000 M⁻¹ s⁻¹
5. GGGYSKGGKGGGKGGKGGGKGGKGGGKGGKG [peptide p5(coil)]  75000 M⁻¹ s⁻¹

In order of rising ka2 (two-state model, second step):
1. GGGYSKGGKGGGKGGKGGGKGGKGGGKGGKG [peptide p5(coil)]  7.9e-06 s⁻¹
2. VYKVKTKVKTKVKTKVKT [peptide p5(sheet)]  0.007 s⁻¹
3. GGG[dY][dS][dK][dA][dQ][dK][dA][dQ][dA][dK][dQ][dA][dK][dQ][dA][dQ][dK][dA][dQ][dK][dA][dQ][dA][dK][dQ][dA][dK][dQ] [peptide p5(D)]  0.0074 s⁻¹
4. GGGYSKAQKAPAKQAKQPQKAQKAPAKQAKQ [peptide p5(Pro3)]  0.0122 s⁻¹
5. GGGYSKAQKAQAKQAKQAQKAQKAQAKQAKQ [peptide p5]  0.0315 s⁻¹

In order of rising kd1 (two-state model, first step):
1. GGGYSKGGKGGGKGGKGGGKGGKGGGKGGKG [peptide p5(coil)]  0.001 s⁻¹
2. VYKVKTKVKTKVKTKVKT [peptide p5(sheet)]  0.026 s⁻¹
3. GGGYSKAQKAPAKQAKQPQKAQKAPAKQAKQ [peptide p5(Pro3)]  0.045 s⁻¹
4. GGG[dY][dS][dK][dA][dQ][dK][dA][dQ][dA][dK][dQ][dA][dK][dQ][dA][dQ][dK][dA][dQ][dK][dA][dQ][dA][dK][dQ][dA][dK][dQ] [peptide p5(D)]  0.052 s⁻¹
5. GGGYSKAQKAQAKQAKQAQKAQKAQAKQAKQ [peptide p5]  0.203 s⁻¹

In order of rising kd2 (two-state model, second step):
1. GGGYSKGGKGGGKGGKGGGKGGKGGGKGGKG [peptide p5(coil)]  1.5e-05 s⁻¹
2. GGGYSKAQKAQAKQAKQAQKAQKAQAKQAKQ [peptide p5]  0.0011 s⁻¹
3. GGG[dY][dS][dK][dA][dQ][dK][dA][dQ][dA][dK][dQ][dA][dK][dQ][dA][dQ][dK][dA][dQ][dK][dA][dQ][dA][dK][dQ][dA][dK][dQ] [peptide p5(D)]  0.0017 s⁻¹
4. GGGYSKAQKAPAKQAKQPQKAQKAPAKQAKQ [peptide p5(Pro3)]  0.0024 s⁻¹
5. VYKVKTKVKTKVKTKVKT [peptide p5(sheet)]  0.0028 s⁻¹

Molecular target: synthetic amyloid fibrils composed of recombinant Vλ6 protein Wil
Assay: pull-down

With GGGYSKAQKAQAKQAKQAQKAQKAQAKQAKQ [peptide p5] the percent inhibition of the binding of m6 (125I-p5) by a 1000-fold molar excess was 95%.

Binder GGGYSKAQKAQAKQAKQAQKAQKAQAKQAKQ [peptide p5] has a percent inhibition of the binding of m7 (125I-p5(D)) by a 1000-fold molar excess of 80%.

In order of rising ratio of 1 M/0.15 M pulldown data (bound peptide in 1 M NaCl over that in PBS):
1. GGGYSKAQKAPAKQAKQPQKAQKAPAKQAKQ (also: radioiodinated with iodine-125, site not given here) [125I-labeled peptide p5(Pro3)]  0.01
2. GGGYSKGGKGGGKGGKGGGKGGKGGGKGGKG (also: radioiodinated with iodine-125, site not given here) [125I-labeled peptide p5(coil)]  0.02
3. VYKVKTKVKTKVKTKVKT (also: radioiodinated with iodine-125, site not given here) [125I-labeled peptide p5(sheet)]  0.35

Molecular target: synthetic amyloid fibrils composed of Aβ(1-40) peptide
Assay: pull-down

In order of rising ratio of 1 M/0.15 M pulldown data (bound peptide in 1 M NaCl over that in PBS):
1. GGGYSKAQKAPAKQAKQPQKAQKAPAKQAKQ (also: radioiodinated with iodine-125, site not given here) [125I-labeled peptide p5(Pro3)]  0.01
2. GGGYSKGGKGGGKGGKGGGKGGKGGGKGGKG (also: radioiodinated with iodine-125, site not given here) [125I-labeled peptide p5(coil)]  0.07
3. VYKVKTKVKTKVKTKVKT (also: radioiodinated with iodine-125, site not given here) [125I-labeled peptide p5(sheet)]  0.21
